Assays:
[1] = system: animal cells (particularly, human cells); details: cited from earlier work
[2] = 3-ketoacyl-CoA synthase activity of recombinant OrfB, LC/MS; type: biochemical; details: 2.5 μg orfB, 250 μM acetyl-CoA, 250 μM methylmalonyl-CoA, pH 7.5, 27° C., 16 hours
Method: (§1) A substrate of the target enzyme is added to the reaction solution. Specifically, in a 3-ketoacyl-CoA synthase activity assay, acetyl-CoA and methylmalonyl-CoA are added. In a 3-ketoacyl-CoA reductase activity assay, 2-methylacetoacetyl-CoA is added. In an enoyl-CoA hydratase activity assay, 3-hydroxy-2-methylbutyryl-CoA is added. In an acyltransferase activity assay, angelyl-CoA is added. The concentration of the substrate may be any concentration as far as it has no effect on the reaction, and is suitably 0.01 mM to 0.2 M of the reaction solution. The enzyme concentration for the reaction is not particularly limited, and is usually in a range of 0.001 mg/ml to 100 mg/ml.
(§2) The activity may be detected by a method that can measure a decrease of substrates or an increase of reaction products during the reaction. Examples of such methods include a method that separates and quantifies a target substance optionally by using thin layer chromatography, column chromatography, high-performance liquid chromatography (HPLC) and the like. […]
Next, it was examined whether the obtained recombinant enzyme protein (OrfB) catalyses production of 2-methylacetoacetyl-CoA from acetyl-CoA and methylmalonyl-CoA by employing the following reaction conditions. […] After termination of the reaction by adding 100 μl of methanol, it was analysed on LC/MS.

[3] = 3-ketoacyl-CoA reductase activity of recombinant OrfD, LC/MS; type: biochemical; details: 0.8 μg orfD with 2.5 μg orfB, 500 μM NADPH, pH 7.5, 27° C., 16 hours
Method: as §1, §2
Next, it was examined whether the obtained recombinant enzyme protein (OrfD) catalysed production of 3-hydroxy-2-methylbutyryl-CoA from 2-methylacetoacetyl-CoA by employing the following reaction conditions. […] After termination of the reaction by adding 100 μl of methanol, it was analysed on LC/MS.

[4] = enoyl-CoA hydratase activity of recombinant OrfA, LC/MS; type: biochemical; details: 15.8 μg orfA with orfB and orfD, 500 μM NADPH, pH 7.5, 27° C., 16 hours
Method: as §1, §2
Next, it was examined whether the obtained recombinant enzyme protein (OrfA) catalysed production of angelyl-CoA from 3-hydroxy-2-methylbutyryl-CoA by employing the following reaction conditions. […] After termination of the reaction by adding 100 μl of methanol, it was analysed on LC/MS.

[5] = acyltransferase activity of OrfC inferred from Streptomyces albus/pOSV556-orfABCD culture; type: cell-based, Streptomyces albus J1074; details: inferred from Examples 1 to 4
Method: Streptomyces albus/pOSV556-orfABCD was grown by shake culture in 10 ml of a liquid medium containing 1% yeast extract and 1% glucose at 27° C. for 1 day, which was then added 1 ml of 20% trehalose aqueous solution, and the shake culture was continued at 27° C. for 4 more days. The obtained culture medium was added 10 ml of ethanol and stirred for 1 hour. Ethanol in the extract was then removed by distillation under reduced pressure, and 5 ml of ethyl acetate was added to the obtained aqueous solution, which was thoroughly stirred, and then the ethyl acetate phase was collected. After concentration to dryness, the solid was dissolved in 100 μl of methanol and analysed on LC/MS to confirm production of trehangelin (FIG. 1).

C/C=C(/C)C(=O)OC1C(OC2OC(CO)C(O)C(OC(=O)/C(C)=C\C)C2O)OC(CO)C(O)C1O (stereo not drawn) [Trehangelin B]
toxicity towards animal cells (particularly, human cells) [1]: do not exhibit toxicity

C/C=C(/C)C(=O)OC1C(O)C(CO)OC(OC2OC(CO)C(O)C(OC(=O)/C(C)=C\C)C2O)C1O (stereo not drawn) [Trehangelin A]
toxicity towards animal cells (particularly, human cells) [1]: do not exhibit toxicity

B1: OrfB: enzyme protein encoded by SEQ ID NO: 4, 3-ketoacyl-CoA synthase from Polymorphospora rubra K07-0510 (protein)
chain: MSTSTVIGTGSYLPRRVLSSGELARRVGVAENWIVEKTGIRERRVAADEEATSDLATRAARRALRTARLDPADVDLIVLATSTPDRPMPATASTVQANLGARQAVAFDVDAVCSGFVYALVVAHSMLNSEGWARTALVIGADTYSRVLDYTDRRTAVLFGDGAGAVVLGRETGGGSGIRATTLGTDGTLADLVQIPAGGSRRPASAQTVEAGDHYFAMRGGDVRRLANQVFPALVGQLLKAASLDLDQVDLIAAHQANGTMLTDWSRDLGLRPGVLHRTVERYGNTGAASVPVTLDDAVRTGRLGAAATLLMVAFGGGMTWGGVALDWSADPSVPRSNCVR
modifications: Polymorphospora rubra K07-0510; CDS (1)..(1026)
production of 2-methylacetoacetyl-CoA from acetyl-CoA and methylmalonyl-CoA [2]: production of 2-methylacetoacetyl-CoA was observed

B2: OrfD: enzyme protein encoded by SEQ ID NO: 8, 3-ketoacyl-CoA reductase from Polymorphospora rubra K07-0510 (protein)
chain: VTAGTGQPVVAAPGRALADRVVVVTGASRGVGRDLARVFADHGARLGLLARSRDALDDLGGTLTAAGADVLAVPCDVGEPDSLAGAVDAVAGHFGGIDSVVVNAGISPVARRAHHLPIDAWHDVLATNLTGGFVTARAAYPHLARSGRGRLVFTTSVMAATPRRGLSAYAASKAGLEGLTRALAADWAGDGILVNAVAPGFFDTGLGAAFHTSQRLHEQVVGRTPVARFGRADELAAAFVFLAGDACGYLTGQVLAVDGGYGLG
modifications: Polymorphospora rubra K07-0510; CDS (1)..(795)
production of 3-hydroxy-2-methylbutyryl-CoA from 2-methylacetoacetyl-CoA [3]: production of 3-hydroxy-2-methylbutyryl-CoA was observed

B3: OrfA: enzyme protein encoded by SEQ ID NO: 2, enoyl-CoA hydratase from Polymorphospora rubra K07-0510 (protein)
chain: VTRPDAPGPPVAAPDPADAVVTAVEPYVVRATINRPARRNAIDLAVIEGLERAIDLAEATGARVLVLRGAGGTFCSGADLRVLEEMSVDPHRVETFMVRLALVLRRLETARFVSVAVVEGHAVAGGCEILLACDVSVAATDARIGDRHLEYGLVPAAGGSVRLARTLPKARGNYLLLAADLLTGEQAAQWGLVSVAVPPTDLEPRVDALVGRLVGHSADALAVVKKMVWTADHEPRPDAMSWERRLFLRHLGSEDVSEGLRAFRERRRPAFRADD
modifications: Polymorphospora rubra K07-0510; CDS (1)..(828)
production of angelyl-CoA from 3-hydroxy-2-methylbutyryl-CoA [4]: production of angelyl-CoA was observed

B4: OrfC: enzyme protein encoded by SEQ ID NO: 6, acyltransferase from Polymorphospora rubra K07-0510 (protein)
chain: MTTSALGAEPGATDPPAAPPVSYAPSGRMPRTINRWPRPFAPRNILGVLRARLRGATISLNQVKFDESTAERNALVMEHALLRHSHVARYAIVGPFTSLFKVRVGPYAGIAEKVTVGALPHWPELPTSHVFPVNAEFGFCAGEWPEVPGTEVGADAWIGAGAVVRAGVRIGHGAIVAAGAVVTRDVADYEIVAGVPARRLRSRFPDDLAERLVALAWWDWPPGFIKANIDLFQRPLTADTLAALEERARALPTPPGGAA
modifications: Polymorphospora rubra K07-0510; CDS (1)..(780)
acyltransferase activity (trehangelin from angelyl-CoA and trehalose) [5]: had an acyltransferase activity
